Measurements reported in patent publication US20260258084A1, “New Peptides as Selective IL-23 Receptor Antagonists” (Sanofi, priority 2022, published 2026).
Starred links: 1 amine or outer side, 2 acyl side, 3 side chain; linkers in the order of their positions; H or OH if unused. Positions of bridges follow the written chain, without caps; N, C: chain ends. Non-standard residues stand in square brackets, D forms with d. Yde = (2S)-2-amino-3-[4-[2-(dimethylamino)ethoxy]phenyl]propanoic acid, CN(C)CCOc1ccc(C[C@H](N[*:1])C(=O)[*:2])cc1; Phe(4-OMe) = COc1ccc(C[C@H](N[*:1])C(=O)[*:2])cc1; Trp(7-Me) = Cc1cccc2c(C[C@H](N)C(=O)O)c[nH]c12; αMeLys(Me2) = CN(C)CCCC[C@](C)(N)C(=O)O; 2Nal = N[C@@H](Cc1ccc2ccccc2c1)C(=O)O; εLys = N[C@@H](CCCCN[*:1])C(=O)[*:2]; NMe5Ava = CN(CCCCC(=O)[*:2])[*:1]; 3Pal = N[C@@H](Cc1cccnc1)C(=O)O; NMeN = CN[C@@H](CC(N)=O)C(=O)O; αMeL = CC(C)C[C@](C)(N)C(=O)O; Aib = CC(C)(N)C(=O)O; Ahx = NCCCCCC(=O)O; Ava = NCCCCC(=O)O; Sar = CNCC(=O)O

T1: IL-23 receptor on the surface of HEK-Blue IL-23 cells (UniProt Q5VWK5 24-629, limits assumed)
T1 sequence (looked up): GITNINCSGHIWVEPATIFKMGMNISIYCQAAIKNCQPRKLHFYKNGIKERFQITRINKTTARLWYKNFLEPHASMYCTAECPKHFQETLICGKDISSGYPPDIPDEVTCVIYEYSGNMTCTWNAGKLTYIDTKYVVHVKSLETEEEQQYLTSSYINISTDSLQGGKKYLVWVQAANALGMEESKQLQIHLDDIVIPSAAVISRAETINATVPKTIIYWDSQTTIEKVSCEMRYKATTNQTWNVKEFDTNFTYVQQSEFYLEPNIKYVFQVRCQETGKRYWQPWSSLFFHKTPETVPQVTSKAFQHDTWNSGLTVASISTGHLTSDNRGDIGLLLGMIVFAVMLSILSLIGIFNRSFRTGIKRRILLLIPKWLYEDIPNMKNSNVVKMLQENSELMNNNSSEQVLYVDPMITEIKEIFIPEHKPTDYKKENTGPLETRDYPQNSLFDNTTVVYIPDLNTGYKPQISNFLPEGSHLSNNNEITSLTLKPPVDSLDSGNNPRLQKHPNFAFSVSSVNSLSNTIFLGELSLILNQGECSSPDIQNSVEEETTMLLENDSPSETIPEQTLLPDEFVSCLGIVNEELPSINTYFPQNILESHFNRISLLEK

B1: Compound of SEQ ID NO: 58 (peptide)
peptide: [Ava]CNTWK(Ac)C[Yde][2Nal][αMeLys(Me2)]EN[3Pal][Sar]-NH2
modifications: lactam N-11; disulfide 2-7
SMILES: CC(=O)NCCCC[C@@H]1NC(=O)[C@H](Cc2c[nH]c3ccccc23)NC(=O)[C@H]([C@@H](C)O)NC(=O)[C@H](CC(N)=O)NC(=O)[C@@H]2CSSC[C@H](NC1=O)C(=O)N[C@@H](Cc1ccc(OCCN(C)C)cc1)C(=O)N[C@@H](Cc1ccc3ccccc3c1)C(=O)N[C@@](C)(CCCCN(C)C)C(=O)N[C@H](C(=O)N[C@@H](CC(N)=O)C(=O)N[C@@H](Cc1cccnc1)C(=O)N(C)CC(N)=O)CCC(=O)NCCCCC(=O)N2
B2: Compound of SEQ ID NO: 6 (peptide)
peptide: [Ahx]C[NMeN]TWQC[Phe(4-OMe)][2Nal][Aib]DNN-NH2
modifications: lactam N-11; disulfide 2-7
SMILES: COc1ccc(C[C@@H]2NC(=O)[C@@H]3CSSC[C@H](NC(=O)CCCCCNC(=O)C[C@@H](C(=O)N[C@@H](CC(N)=O)C(=O)N[C@@H](CC(N)=O)C(N)=O)NC(=O)C(C)(C)NC(=O)[C@H](Cc4ccc5ccccc5c4)NC2=O)C(=O)N(C)[C@@H](CC(N)=O)C(=O)N[C@@H]([C@@H](C)O)C(=O)N[C@@H](Cc2c[nH]c4ccccc24)C(=O)N[C@@H](CCC(N)=O)C(=O)N3)cc1
B3: Compound of SEQ ID NO: 60 (peptide)
peptide: [NMe5Ava]C[εLys](Ac)[Trp(7-Me)]K(Ac)C[Yde][2Nal][Aib]ENH-NH2
modifications: lactam N-10; disulfide 2-6; also: Cys2 bonded to epsilon-NH2 of Lys3, Lys3 alpha-amine acetylated (K[aAc])
B4: Compound of SEQ ID NO: 63 (peptide)
peptide: [Ava]CNT[Trp(7-Me)]QC[Yde][2Nal][αMeL]EN[3Pal][Sar]-NH2
modifications: lactam N-11; disulfide 2-7
SMILES: Cc1cccc2c(C[C@@H]3NC(=O)[C@H]([C@@H](C)O)NC(=O)[C@H](CC(N)=O)NC(=O)[C@@H]4CSSC[C@H](NC(=O)[C@H](CCC(N)=O)NC3=O)C(=O)N[C@@H](Cc3ccc(OCCN(C)C)cc3)C(=O)N[C@@H](Cc3ccc5ccccc5c3)C(=O)N[C@@](C)(CC(C)C)C(=O)N[C@H](C(=O)N[C@@H](CC(N)=O)C(=O)N[C@@H](Cc3cccnc3)C(=O)N(C)CC(N)=O)CCC(=O)NCCCCC(=O)N4)c[nH]c12
B5: Compound of SEQ ID NO: 62 (peptide)
peptide: [Ava]CNT[Trp(7-Me)]QC[Yde][2Nal][Aib]EN[3Pal][Sar]-NH2
modifications: lactam N-11; disulfide 2-7
SMILES: Cc1cccc2c(C[C@@H]3NC(=O)[C@H]([C@@H](C)O)NC(=O)[C@H](CC(N)=O)NC(=O)[C@@H]4CSSC[C@H](NC(=O)[C@H](CCC(N)=O)NC3=O)C(=O)N[C@@H](Cc3ccc(OCCN(C)C)cc3)C(=O)N[C@@H](Cc3ccc5ccccc5c3)C(=O)NC(C)(C)C(=O)N[C@H](C(=O)N[C@@H](CC(N)=O)C(=O)N[C@@H](Cc3cccnc3)C(=O)N(C)CC(N)=O)CCC(=O)NCCCCC(=O)N4)c[nH]c12
B6: Compound of SEQ ID NO: 59 (peptide)
peptide: [Ava]C[εLys](Ac)WK(Ac)C[Yde][2Nal][αMeLys(Me2)]EN[3Pal][Sar]-NH2
modifications: lactam N-10; disulfide 2-6; also: Cys2 bonded to epsilon-NH2 of Lys3, Lys3 alpha-amine acetylated (K[aAc])

Molecular target: T1, IL-23 receptor on the surface of …
Assay: cell-based or functional assay

Row | pSTAT3 (nM) | Binder
1 | 0.1 | B1
2 | 72.9 | B2
3 | 0.16 | B3
4 | 0.2 | B4
5 | 0.2 | B5
6 | 0.07 | B6
